± gives the uncertainty stated by the source.
Experiment: amyloid nucleation score (Sup35N fusion, yeast selection) (log enrichment); library NNK3; higher = more nucleation; inactive = no reads after selection
Outline: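 Libraries of peptides of 20 random codons fused to Sup35N were expressed in psi-negative yeast and induced 24 hours with 100 μM copper sulfate. Selection was 7 days at 30°C on medium lacking adenine and uracil, and plasmid inserts were Illumina-sequenced before and after selection. Nucleation score is the DiMSum log enrichment of output over input reads, centred on the mode score of non-aggregating sequences, and sequences with under 100 input reads were left out.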

Substance	amyloid nucleation score
MCFKTEYSRSPGYIAN	inactive
IQIVSWQSAL	inactive
DYCGDCMILFCTLVGYDRCT	2.06 ± 0.068
SLSSRGLYLSKDLMPILNYR	inactive
SNRIYHVVFID	1.89 ± 0.1
GYLSFIVFMGGRPSLSGNSI	1.42 ± 0.14
RLYDIVCYSTVVL	1.99 ± 0.074
AQEYRMQHRLGGL	inactive
DVHWISGKSNYSDDNRCYST	inactive
NACTF	inactive
PRLNMGCMLFSEYTYCQMIL	1.1 ± 0.14
IGLSLE	inactive
DGLYSTNQRSIAPHLTQPID	inactive
LHKLVLMINDRPYLKPS	inactive
VLLNLSSFMLSTFTLRMS	inactive
TVYEA	inactive
TIEIGSLYTITM	-0.251 ± 0.45
HYSLSQDISDSNGLQLLFLL	2.1 ± 0.075
STWTWMPHKERHITLSKEFW	inactive
RNGRKYSIWLVGVSH	inactive
NCRFEGLDKSTS	inactive
YTVSS	inactive
NCINVYGNTNLLRGPVGTSG	inactive
GHGLGAAYCRIVLKRETLTN	inactive

Substance	amyloid nucleation score
RKHLRPQSMRVDSGETLRVL	inactive
VVLNWNTNGY	0.669 ± 0.15
VSYGTCH	inactive
IRSERTLDSATWDPFVVLKD	inactive
IVECFYTL	inactive
YYRLFLI	inactive
SRILRYVTLSEYWFQPIGLD	inactive
QMSCNQRNISMGFKIGRFYM	1.5 ± 0.061
PWRCKRWHFYMYVDCANLRQ	inactive
NYGQALHWLLRGGSMWSQGT	inactive
SRSSCRVIPT	inactive
TNPMYK	inactive
VVRFLDQKMYVVGLLSGS	inactive
YFLDV	inactive
NSFDSMGSMFANRYRLNFPR	inactive
FVPCVWLGSGNCLCTDTMLW	1.63 ± 0.11
IMSSTGIFNLLRAESMCSLF	inactive
VSFELYMHFSSFSYFGMLKG	1.16 ± 0.13
FYNDWRVFRVGCSLGRDQSN	inactive
GWSFAWCTRVRVMGKVAVWW	inactive
PLCWNLNIRDTGIYRPRMRP	inactive
CMRLLTWIKPNWLLLVCLKT	inactive
KMCIDFEPELYNLFLLAFHQ	inactive
VGKFSHACLRIN	inactive

Substance	amyloid nucleation score
KFHIFFCSFCVPPE	3.17 ± 0.082
FWWLEI	inactive
NYNRAPMGTAET	inactive
ILGKRC	inactive
FGFRCWLFWS	inactive
YWMPIDLGFSSLNWPESSRS	inactive
ISNSYH	inactive
TSYSKEVFQLLKWVGNLIRG	inactive
VRLTLIRSLRARRDGEDSKM	inactive
YHLLFIVKAYIGVILNFLRS	inactive
NYLVVLMGSTCMKVRPLGVS	inactive
EDPGLYFLRVS	inactive
FSYSFVTRDMATYGRTLVKS	inactive
LHALFVLSMGQA	inactive
IGFIIGDVFAA	inactive
RSDGRCEYKSWCNVQLKVE	inactive
TLSRFPLGNCF	inactive
WYHSQNVINCRQSVVTMKHN	inactive
KIFTWIRCNLSIFYSYGFKS	inactive
RFSYWGKDRSRVSNL	inactive
VDLRLDY	inactive
EQGSSLHRHNHFVTLMGCRG	inactive
ASAEEGWQNCEK	inactive
SCRNCDYLLCGNYHT	inactive

Substance	amyloid nucleation score
TIATLRF	inactive
ARMVVVLKRFCGVCMMSLFL	inactive
ITQLFSSLRADYAAQYYLGV	inactive
YSALNSYSWYVTPFYILYWF	2.56 ± 0.084
CNYLTMSGF	inactive
KEFCVRPLYRFSVRMNIC	0.035 ± 0.62
NYAYPIPIRLLIEAWRMGTA	inactive
TVGTIPFWVALPSTSLNR	inactive
TLSYVCTNAGGSVFMTCLFF	-0.104 ± 0.58
NCQLLKLDSGSLSLCRWVHS	inactive
INSWIPWWLERKWSWHLASI	inactive
LFNYVEEIRAVRRIRLGYIK	inactive
YPHLMK	1.54 ± 0.12
MCRMLFISGIQNCDPDVIMH	1.15 ± 0.12
WFYVIGTVMWYSLNAGYYMW	inactive
INPFLHMVTSLIVEFRVLNC	inactive
VHVLVVWYFAFTCVCRVPFG	0.228 ± 0.85
NLYLSDNVCRVMKASVWVHA	inactive
CRVRGAVRSLLHTVFKVDWV	inactive
WTLARFTSD	inactive
LTWYWKNGCSLLPLIGLSGN	inactive
QLGLIVRNSCLSSIVVKGML	-0.06 ± 0.54
YTDSLVLPHGHMIGRVQSFY	inactive
VRLYMYMTILIGNVDLFVEG	inactive

Substance	amyloid nucleation score
MCSETWIYALSICDNLCRD	1.29 ± 0.16
TYYRCSSANLSSGRAEVYKY	inactive
FRSWPS	inactive
MSTMVYRASRCGRLG	0.399 ± 0.53
RWLASNVDPKITSEIQPGAS	inactive
VKKSDWAVGLVDSDQCVHFD	inactive
LPMQYKLLSVFVADFFTIFV	-1.07 ± 1.7
TFDFPHIRRLEFKFAI	inactive
SFYYLVKLYSLSSSIRLFRS	inactive
LHVYTSILWWTYKVDVWLLS	inactive
ILDWG	0.886 ± 0.15
IADSKHTNCFRYMSHVW	inactive
MSFSPQKVVAHFCYWSCMRS	inactive
SWCWYMCSGLNIEIAKGLTR	inactive
LYDCSINKQG	inactive
AKSPL	-0.681 ± 0.96
TVSKANWVLLEFLTFCGMI	1.74 ± 0.096
CVTSVAWANKICARQLFGAD	0.204 ± 0.37
GYTMRG	inactive
WLQISIEKTTKFPSKMNH	1.58 ± 0.11
IRVRTYSTKLPSLGH	inactive
FVTQFVEN	inactive
GMMICMISWWVWNFACVDIR	inactive
CVSDNSS	-0.003 ± 0.8
